B1: mCpG 17 bp, 3'-biotin (dsDNA)
DNA 1: GAGGCGCTCGGCGGCAG
DNA 2: CTGCCGCCGAGCGCCTC
modifications: 5-methyl-C at C9 of strand 1 and C8 of strand 2 (central CpG); two other CpGs unmethylated
B2: CpG(x3) 17 bp, 3'-biotin (dsDNA)
DNA 1: GAGGCGCTCGGCGGCAG
DNA 2: CTGCCGCCGAGCGCCTC

Legend:
HsMBD2 MBD [1] = biological target: T1, HsMBD2 MBD (Homo sapiens, UniProt Q9UBB5 150-214); experiment: SPR; steady state; Rmax 0.93; SPR: 10 mM HEPES pH 7.4, 50 mM NaCl, 3 mM MgCl2, 0.1 mM EDTA, 1 mM DTT, 0.05% polysorbate 20, temperature not stated; NMR conditions not in material; settings: protein: recombinant; blunt
T1 sequence (Q9UBB5 150-214): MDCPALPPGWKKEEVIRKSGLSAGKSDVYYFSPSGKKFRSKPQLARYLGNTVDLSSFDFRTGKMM

HsMBD2 MBD [2] = biological target: T1, HsMBD2 MBD; experiment: SPR; steady state; Rmax 6.0; SPR: 10 mM HEPES pH 7.4, 50 mM NaCl, 3 mM MgCl2, 0.1 mM EDTA, 1 mM DTT, 0.05% polysorbate 20, temperature not stated; NMR conditions not in material; settings: protein: recombinant; blunt

| Binder | Kd (HsMBD2 MBD [1]) | Kd (HsMBD2 MBD [2]) |
| --- | --- | --- |
| B1 | 0.33 µM | – |
| B2 | – | 81.7 µM |
